According to the supplement of paper PMC10567573:

B1: PDS5B (parent)
chain: ITYPPGVKEISDKISKEEMVRRLK

Variants of: B1
Assay: protein stability index of a GFP-peptide fusion (GPS, HEK-293T) (PSI 1-6); higher = more stable
Conditions: c terminus: a fixed tail appended
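Note: lentivirally expressed fusions sorted by FACS into six bins by GFP to DsRed ratio, PSI derived from sequencing read proportions per bin multiplied by bin number.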

Variant | protein stability index
P5F | 3.79
P5H | 3.67
P5N | 4.01
P5V | 3.16
P5S | 4.45
P5E | 4.11
P5W | 3.15
P5A | 4.44
P5Q | 4.17
P5L | 3.7
P5R | 3.81
P5G | 3.67
P5Y | 2.12
P5K | 3.74
P5C | 3.62
P5I | 4.29
T2V | 2.4
T2Y | 3.37
T2E | 3.86
T2I | 2.83
T2S | 3.72
T2G | 4.08
T2K | 3.55
T2H | 3.79

Variant | protein stability index
T2L | 4.14
T2W | 3.45
T2R | 3.57
T2P | 3.47
T2N | 3.79
K16D | 3.56
K16A | 3.92
K16E | 3.87
K16I | 2.85
K16N | 2.63
K16F | 3
K16S | 4.47
K16V | 3.36
K16G | 2.83
K16C | 3.87
K16T | 3.06
K16H | 3.75
M19P | 4.64
M19T | 4.99
M19R | 4.34
M19F | 3.26
M19S | 5.02
M19G | 4.29
M19A | 3.68

Variant | protein stability index
M19K | 4.54
M19N | 4.76
M19Y | 3.96
M19H | 4.74
M19V | 4.65
M19E | 4.79
M19C | 4.1
M19I | 4.24
R21Q | 4.28
R21E | 3.69
R21I | 3.41
R21K | 3.34
R21P | 4.52
R21N | 3.44
R21D | 4.46
R21T | 4.63
R21L | 4.15
R21V | 4.11
R21H | 3.77
R21W | 4.52
R21F | 3.85
R21G | 4.75
R21M | 3.97
R21C | 3.96

Variant | protein stability index
R21S | 4.45
R21A | 2.21
I10P | 4.27
I10G | 4.61
I10Q | 4.36
I10L | 4.33
I10Y | 4.44
I10N | 4.68
I10V | 4.62
I10A | 4.03
I10E | 4.38
I10R | 3.74
I10F | 4.31
I10D | 4.88
I10S | 4.53
I10H | 3.62
S15Y | 3.46
S15H | 4.52
S15A | 4.27
S15M | 4.01
S15D | 4.26
S15R | 3.7
S15E | 4.81
S15N | 3.89

Variant | protein stability index
S15C | 3.23
S15W | 2.13
S15T | 3.66
S15F | 2.33
S15I | 2.73
S15Q | 3.65
E17L | 2.59
E17N | 3.75
E17W | 2.75
E17T | 4.68
E17S | 3.68
E17K | 3.82
E17Q | 3.17
E17F | 2.41
E17A | 3.14
E17Y | 2
E17D | 3.72
E17P | 3.6
E17G | 3.52
E17C | 2.91
E17M | 2.65
E17H | 4.17
V7R | 4.5
V7I | 4.43

Variant | protein stability index
V7M | 4.06
V7N | 4.24
V7L | 3.67
V7C | 4
V7E | 3.09
V7P | 3.47
V7H | 4.04
V7A | 4.21
V7W | 3.82
V7K | 4.55
V7G | 4.01
V7Y | 3.77
V7Q | 4.16
E18Q | 4.15
E18A | 4.37
E18F | 2.18
E18S | 3.21
E18T | 4.12
E18M | 3.12
E18C | 3.86
E18V | 3.6
E18G | 3.86
E18H | 4.01
E18K | 3.17

Variant | protein stability index
E18P | 3.69
E18L | 1.84
E18I | 2.84
E18Y | 2.86
Y3W | 2.8
Y3I | 3.97
Y3C | 3.52
Y3F | 3.85
Y3H | 4.43
Y3K | 4.64
Y3R | 4.96
Y3T | 3.14
Y3A | 4.48
Y3Q | 4.97
Y3S | 4.43
Y3L | 3.81
Y3V | 4.44
Y3E | 4.47
K13D | 4.69
K13P | 4.52
K13W | 2.84
K13F | 3.42
K13H | 3.7
K13C | 2.79

Variant | protein stability index
K13N | 3.72
K13V | 3.51
K13M | 3.76
K13E | 4.34
K13G | 3.75
K13Y | 3.38
K13I | 4.1
K13T | 3.96
K13Q | 4.33
K13R | 4.39
K13A | 4.08
K13S | 4.35
K13L | 3.3
R22H | 3.88
R22C | 2.9
R22I | 2.71
R22G | 4.72
R22A | 3.76
R22F | 3.85
R22K | 3.86
R22D | 4.92
R22M | 2.89
R22L | 2.28
G6D | 4.43

Variant | protein stability index
G6N | 3.54
G6L | 3.65
G6F | 3.31
G6M | 3.33
G6Y | 2.88
G6C | 2.19
G6I | 3.55
G6T | 4.31
G6W | 3.3
G6V | 3.27
G6H | 4.18
G6S | 3.96
G6Q | 3.73
G6R | 4
G6A | 4.26
G6K | 4.57
G6E | 5.04
S11M | 2.35
S11T | 4.08
S11E | 4.04
S11V | 2.8
S11K | 4.72
S11I | 2.83
S11L | 2.38

Variant | protein stability index
S11C | 3.94
S11G | 3.92
S11H | 4.04
S11P | 4.29
S11Q | 4.16
S11W | 2.67
S11F | 3.3
S11N | 3.98
S11R | 3.4
S11A | 3.85
D12Y | 2.46
D12W | 2.85
D12I | 3.04
D12K | 3.43
D12G | 3.15
D12R | 3.19
D12C | 3.03
D12A | 2.75
D12H | 3.83
D12V | 3.3
D12E | 3.57
D12P | 3.7
D12L | 3.18
D12F | 2.71

Variant | protein stability index
D12N | 4.05
D12Q | 3.29
D12T | 3.69
I14M | 4.34
I14T | 4.08
I14L | 4.08
I14S | 4.86
I14N | 2.93
I14E | 4.61
I14F | 3.03
I14C | 3.27
I14Y | 2.68
I14R | 4.38
I14H | 5.35
I14V | 4.02
I14A | 4.5
I14W | 3.03
I14Q | 5.02
P4H | 3.91
P4V | 2.97
P4C | 2.81
P4N | 3.43
P4M | 3
P4Q | 3.33

Variant | protein stability index
P4A | 3.44
P4L | 3.16
P4R | 3.43
P4T | 3.15
P4I | 1.94
P4D | 3.24
P4K | 3.61
K8W | 3.09
K8Y | 3.21
K8N | 3.83
K8A | 4.5
K8T | 4.57
K8R | 3.99
K8C | 3.31
K8F | 3.15
K8P | 3.69
K8V | 4.67
K8I | 3.12
K8L | 3.7
K8Q | 4.29
K8E | 3.78
K8M | 3.46
V20P | 4.26
V20F | 3.6

Variant | protein stability index
V20D | 5.06
V20W | 3.38
V20A | 3.59
V20H | 4.19
V20S | 4.83
V20K | 4.17
V20R | 4.61
V20N | 4.4
V20M | 3.81
V20C | 3.74
V20Q | 4.03
V20I | 3.42
V20Y | 4.2
V20L | 3.49
V20G | 4.59
I1N | 5.13
I1L | 3.95
I1G | 3.81
I1V | 4.62
I1P | 4.78
I1S | 4.78
I1W | 4.64
I1Y | 3.78
I1H | 5.04

Variant | protein stability index
I1D | 4.99
I1M | 4.9
I1T | 4.96
I1E | 4.74
E9S | 3.81
E9F | 2.97
E9I | 3.15
E9N | 3.59
E9W | 2.24
E9C | 3.13
E9M | 3.51
E9G | 4.19
E9K | 3.66
E9R | 2.11
E9Q | 3.35
E9P | 2.75
E9Y | 2.79
E9D | 3.98
E9T | 3.15
E9L | 2.09
E9A | 4.16
E9H | 3.43
